System: small intestinal immune cells
Assay: Droplet-based scRNA-seq of small intestinal immune cells (LP and PP), OVA vs PBS, clustering and differential expression
Type: in vivo, mouse
Source text: To comprehensively characterize small intestinal immune cells, Applicants generated scRNA-Seq profiles for 58,067 immune cells collected from lamina propria (LP) and Peyer's patch (PP) regions at steady state and after induction of a type 2 inflammatory reaction to ovalbumin (OVA) (Brandt et al., 2003) (FIGS. 1A and 8A). To ensure sufficient representation of rare cells, Applicants combined a normalization strategy—removing by flow sorting either a portion of IgD+ naïve B cells, which are the most abundant cell type in PPs, or all CD19+ and CD3+ T cells (FIG. 8B, Methods)—with profiling of a sufficiently large number of cells number (P>0.99 to recover at least 15 cells from each cluster, Methods) by massively parallel scRNA-seq (Haber et al., 2017) (Methods). Applicants obtained 36,797 and 21,270 high quality cells passing initial filtering (Methods) from PP and LP regions, respectively.
Overall, Applicants annotated 27 cell subsets across the two compartments, spanning T cells, B cells, ILCs, dendritic cells (DCs), myeloid cells and stromal cells, in frequencies ranging from 0.07% to 14%. Briefly, Applicants first partitioned the cells from the PP regions by unsupervised clustering (Methods) into 46 clusters, retained the 97% of cells that were robustly assigned cell identities in each cluster (Methods), assigned the cells from the LP regions to the 46 clusters using a classifier (Methods), and visualized the data with scvis (Ding et al., 2018), a deep generative model-based method (FIGS. 1B and 8C, Methods). Next, Applicants identified genes that were differentially expressed between the cells in each cluster and the remaining cells (Table 1, Methods), as well as between pairs of clusters (Table 2), to elucidate identities of similar cell types/states. Applicants excluded from downstream analysis clusters mostly consisting of contaminants from epithelium, likely doublets, or cells with a small number of Unique Molecular Identifiers (UMIs) (FIGS. 1C and 8D), or lacking distinct markers (Methods). Altogether, Applicants retained 27 clusters spanning 85% of the cells and each associated with distinct marker genes (FIG. 8E, Methods).
To induce allergic reaction to OVA, 6 to 7 weeks old mice were sensitized twice, two weeks apart, with 50 μg of OVA plus 1 mg of aluminum potassium sulfate adjuvant via intraperitoneal injection. Two weeks later, mice were orally administered with 50 mg of OVA on every other day for a total of five times. 1 μg of α-CGRP peptide was administered simultaneously when indicated. Mice were deprived of food for 3-4 hours in cages with wood chip bedding for limiting antigen degradation in the stomach before each intragastric challenge.
Isolation of cells from Peyer's patches (PPs). Peyer's patches (PPs) were carefully dissected from the small intestine under a stereo microscope using a fine scissor, pierced once with a fine forcep. Tissues were digested in freshly made digestion buffer (RPMI-1640 containing 100 μg/ml Liberase™ and 50 μg/ml DNase I at 37° C. on a roto-mixer. After 15 min, tissues were very gently mixed using a 1 ml pipette. The supernatant was collected and added to ice-cold MACS buffer (pH 7.4; PBS plus 2% FCS and 2 mM EDTA). Pre-warmed (37° C.) fresh digestion buffer was added to the remaining tissues. After rotation at 37° C. for 15 min, the mixture was vigorously mixed using a 1 ml pipette for 1 min. Supernatants from the two steps were combined and passed through 70 μm filters and stained for FACS (below).
Isolation of cells from the lamina propria (LP). The small intestines were opened longitudinally and washed in ice-cold PBS. For scRNA-seq, roughly 0.5 cm of fragments from each of the distal, middle and proximal regions without visible PPs were collected. Epithelial cells were dissociated by tissue rotation in pre-warmed (37° C.) PBS containing 10 mM EDTA at 37° C. for 15 min, followed by additional incubation on ice for 15 min. Tissues were then shaken vigorously. […]

B1: OVA (protein, UniProt P01012 2-386, looked up)
Ovalbumin: GSIGAASMEFCFDVFKELKVHHANENIFYCPIAIMSALAMVYLGAKDSTRTQINKVVRFDKLPGFGDSIEAQCGTSVNVHSSLRDILNQITKPNDVYSFSLASRLYAEERYPILPEYLQCVKELYRGGLEPINFQTAADQARELINSWVESQTNGIIRNVLQPSSVDSQTAMVLVNAIVFKGLWEKAFKDEDTQAMPFRVTEQESKPVQMMYQIGLFRVASMASEKMKILELPFASGTMSMLVLLPDEVSGLEQLESIINFEKLTEWTSSNVMEERKIKVYLPRMKMEEKYNLTSVLMAMGITDVFSSSANLSGISSAESLKISQAVHAAHAEINEAGREVVGSAEAGVDAASVSEEFRADHPFLFCIKHIATNAVLFFGRCVSP
Txnip: LN (average fold change) (cluster ID 5, PP, OVA vs PBS): 0.660 | Uba52: LN (average fold change) (cluster ID 5, PP, OVA vs PBS): 0.277 | Ucp2: LN (average fold change) (cluster ID 5, PP, OVA vs PBS): 0.325 | Wdr89: LN (average fold change) (cluster ID 5, PP, OVA vs PBS): 0.291 | Zfp36l2: LN (average fold change) (cluster ID 5, PP, OVA vs PBS): 0.865 | AY036118: percentage of expressing cells in OVA-treated group (cluster ID 6, PP): 0.426 | Atf3: percentage of expressing cells in OVA-treated group (cluster ID 6, PP): 0.091 | Atp5h: percentage of expressing cells in OVA-treated group (cluster ID 6, PP): 0.963 | B3gnt8: percentage of expressing cells in OVA-treated group (cluster ID 6, PP): 0.486 | Bcl2l11: percentage of expressing cells in OVA-treated group (cluster ID 6, PP): 0.257 | Bhlhe40: percentage of expressing cells in OVA-treated group (cluster ID 6, PP): 0.465 | Bloc1s2: percentage of expressing cells in OVA-treated group (cluster ID 6, PP): 0.784 | Btg2: percentage of expressing cells in OVA-treated group (cluster ID 6, PP): 0.801 | Ccl4: percentage of expressing cells in OVA-treated group (cluster ID 6, PP): 0.848 | Cd68: percentage of expressing cells in OVA-treated group (cluster ID 6, PP): 0.861 | Cd83: percentage of expressing cells in OVA-treated group (cluster ID 6, PP): 0.092 | Cdv3: percentage of expressing cells in OVA-treated group (cluster ID 6, PP): 0.414 | Clcn3: percentage of expressing cells in OVA-treated group (cluster ID 6, PP): 0.35 | Clec10a: percentage of expressing cells in OVA-treated group (cluster ID 6, PP): 0.532 | Clec2d: percentage of expressing cells in OVA-treated group (cluster ID 6, PP): 0.578 | Coq10b: percentage of expressing cells in OVA-treated group (cluster ID 6, PP): 0.242 | Crem: percentage of expressing cells in OVA-treated group (cluster ID 6, PP): 0.34 | Cxcr3: percentage of expressing cells in OVA-treated group (cluster ID 6, PP): 0.516 | Cxcr4: percentage of expressing cells in OVA-treated group (cluster ID 6, PP): 0.561 | D13Ertd608e: percentage of expressing cells in OVA-treated group (cluster ID 6, PP): 0.947 | Ddit4: percentage of expressing cells in OVA-treated group (cluster ID 6, PP): 0.221 | Ddx3x: percentage of expressing cells in OVA-treated group (cluster ID 6, PP): 0.436 | Defa24: percentage of expressing cells in OVA-treated group (cluster ID 6, PP): 0.099 | Dnajc7: percentage of expressing cells in OVA-treated group (cluster ID 6, PP): 0.987 | Dusp1: percentage of expressing cells in OVA-treated group (cluster ID 6, PP): 0.406 | Dusp5: percentage of expressing cells in OVA-treated group (cluster ID 6, PP): 0.668 | Dusp18: percentage of expressing cells in OVA-treated group (cluster ID 6, PP): 0.091 | Egr1: percentage of expressing cells in OVA-treated group (cluster ID 6, PP): 0.143 | Emp3: percentage of expressing cells in OVA-treated group (cluster ID 6, PP): 0.936 | Erdr1: percentage of expressing cells in OVA-treated group (cluster ID 6, PP): 0.149 | Fabp2: percentage of expressing cells in OVA-treated group (cluster ID 6, PP): 0.048 | Fam46c: percentage of expressing cells in OVA-treated group (cluster ID 6, PP): 0.221 | Filip1l: percentage of expressing cells in OVA-treated group (cluster ID 6, PP): 0.384 | Fkbp5: percentage of expressing cells in OVA-treated group (cluster ID 6, PP): 0.161 | Fosb: percentage of expressing cells in OVA-treated group (cluster ID 6, PP): 0.332 | Fosl2: percentage of expressing cells in OVA-treated group (cluster ID 6, PP): 0.141 | Foxp1: percentage of expressing cells in OVA-treated group (cluster ID 6, PP): 0.719 | Fyn: percentage of expressing cells in OVA-treated group (cluster ID 6, PP): 0.756 | Gapdh: percentage of expressing cells in OVA-treated group (cluster ID 6, PP): 0.911 | Gapt: percentage of expressing cells in OVA-treated group (cluster ID 6, PP): 0.657 | Gnb1: percentage of expressing cells in OVA-treated group (cluster ID 6, PP): 0.515 | Grasp: percentage of expressing cells in OVA-treated group (cluster ID 6, PP): 0.193 | Gtf2i: percentage of expressing cells in OVA-treated group (cluster ID 6, PP): 0.542 | H2-Aa: percentage of expressing cells in OVA-treated group (cluster ID 6, PP): 0.947 | H2-Ab1: percentage of expressing cells in OVA-treated group (cluster ID 6, PP): 0.949 | H2-Eb1: percentage of expressing cells in OVA-treated group (cluster ID 6, PP): 0.907 | H2afj: percentage of expressing cells in OVA-treated group (cluster ID 6, PP): 0.935 | Hes6: percentage of expressing cells in OVA-treated group (cluster ID 6, PP): 0.474 | Hist1h1c: percentage of expressing cells in OVA-treated group (cluster ID 6, PP): 0.522 | Hist2h4: percentage of expressing cells in OVA-treated group (cluster ID 6, PP): 0.165 | Ier2: percentage of expressing cells in OVA-treated group (cluster ID 6, PP): 0.432 | Ier5: percentage of expressing cells in OVA-treated group (cluster ID 6, PP): 0.937 | Ifi30: percentage of expressing cells in OVA-treated group (cluster ID 6, PP): 0.883 | Ifrd1: percentage of expressing cells in OVA-treated group (cluster ID 6, PP): 0.241 | Igha: percentage of expressing cells in OVA-treated group (cluster ID 6, PP): 0.681 | Igkc: percentage of expressing cells in OVA-treated group (cluster ID 6, PP): 0.944 | Itpkb: percentage of expressing cells in OVA-treated group (cluster ID 6, PP): 0.296 | Jun: percentage of expressing cells in OVA-treated group (cluster ID 6, PP): 0.769 | Junb: percentage of expressing cells in OVA-treated group (cluster ID 6, PP): 0.745 | Jund: percentage of expressing cells in OVA-treated group (cluster ID 6, PP): 0.92 | Kdm6b: percentage of expressing cells in OVA-treated group (cluster ID 6, PP): 0.307 | Klf4: percentage of expressing cells in OVA-treated group (cluster ID 6, PP): 0.147 | Klk1: percentage of expressing cells in OVA-treated group (cluster ID 6, PP): 0.964 | Kmt2e: percentage of expressing cells in OVA-treated group (cluster ID 6, PP): 0.596 | Lag3: percentage of expressing cells in OVA-treated group (cluster ID 6, PP): 0.605 | Lgals1: percentage of expressing cells in OVA-treated group (cluster ID 6, PP): 0.985 | Lmnb1: percentage of expressing cells in OVA-treated group (cluster ID 6, PP): 0.189 | Ly6c1: percentage of expressing cells in OVA-treated group (cluster ID 6, PP): 0.991 | Lyz1: percentage of expressing cells in OVA-treated group (cluster ID 6, PP): 0.035 | Mcl1: percentage of expressing cells in OVA-treated group (cluster ID 6, PP): 0.459
